Data as given in the supplement of paper PMC7125110.
± gives the standard error. Variants at the floor of the assay were thinned out.

B1: glmS ribozyme (parent)
chain: AUAAAAGCGCCAGAACUACAGAAAUGUAGUUGACGAGGAGGAGGUUUAUCGAAUUUUCGGCGGAUGCCUCCAAA

What was measured:
Conditions in all cases: with glucosamine-6-phosphate
[1] = variants of: B1; assay: self-cleavage kobs at 40 uM GlcN6P; higher = faster cleavage; RNA array
Procedure, shortened: (§1)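 E. coli RNA polymerase transcribed barcoded ribozyme variants in situ on sequenced MiSeq chips, which were tracked via a hybridised Cy3 probe at 37 °C. Tiles were imaged over ~14 h after glucosamine-6-phosphate (40 μM to 10 mM) in HEPES/KCl/Mg(OAc)2 buffer was flowed in. Normalised per-tile medians were fit to one- or two-exponential decays for kobs, and kcat and KM came from weighted Michaelis–Menten fits.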

[2] = variants of: B1; assay: self-cleavage kobs at 160 uM GlcN6P; higher = faster cleavage; RNA array
Procedure, shortened: as §1

[3] = variants of: B1; assay: self-cleavage kobs at 10000 uM GlcN6P; higher = faster cleavage; RNA array
Procedure, shortened: as §1

[4] = variants of: B1; assay: self-cleavage kobs at 640 uM GlcN6P; higher = faster cleavage; RNA array
Procedure, shortened: as §1

[5] = variants of: B1; assay: self-cleavage kobs at 2500 uM GlcN6P; higher = faster cleavage; RNA array
Procedure, shortened: as §1

Row | Variant | self-cleavage kobs at 40 uM GlcN6P [1] | self-cleavage kobs at 160 uM GlcN6P [2] | self-cleavage kobs at 10000 uM GlcN6P [3] | self-cleavage kobs at 640 uM GlcN6P [4] | self-cleavage kobs at 2500 uM GlcN6P [5]
1 | C10U U31C G66U | < 1e-05 s⁻¹ | < 1e-05 s⁻¹ | < 1e-05 s⁻¹ |  | 
2 | A14U C50G C67U | 0.00027 ± 6.3e-05 s⁻¹ | 0.000222 ± 7e-05 s⁻¹ | 0.000112 ± 1.9e-05 s⁻¹ | 0.000192 ± 5.6e-05 s⁻¹ | 0.000193 ± 5.8e-05 s⁻¹
3 | A12U A39U U54C | 0.000713 ± 0.00016 s⁻¹ |  | 0.0366 ± 0.01 s⁻¹ |  | 
4 | G9C A53C | < 1e-05 s⁻¹ | < 1e-05 s⁻¹ | < 1e-05 s⁻¹ | < 1e-05 s⁻¹ | 
5 | A33U A36G G41C A53G | < 1e-05 s⁻¹ |  | < 1e-05 s⁻¹ |  | 
6 | A6U C8G A33U C34G U69G | 8.53e-05 ± 1.8e-05 s⁻¹ |  | 6.82e-05 ± 1.7e-05 s⁻¹ | 0.000181 ± 5.7e-05 s⁻¹ | 
7 | U49G G66C | < 1e-05 s⁻¹ |  |  |  | < 1e-05 s⁻¹
8 | C16A G43U C68G C71U | < 1e-05 s⁻¹ |  |  |  | 
9 | A36G A52U | < 1e-05 s⁻¹ | < 1e-05 s⁻¹ | < 1e-05 s⁻¹ | < 1e-05 s⁻¹ | < 1e-05 s⁻¹
10 | A14C A36G | < 1e-05 s⁻¹ | < 1e-05 s⁻¹ | < 1e-05 s⁻¹ | < 1e-05 s⁻¹ | < 1e-05 s⁻¹
11 | G9A U46G G62A | < 1e-05 s⁻¹ |  |  |  | < 1e-05 s⁻¹
12 | C8U G44C A53U G63U C68G | < 1e-05 s⁻¹ |  | < 1e-05 s⁻¹ |  | 
13 | U55G U56G G62C | < 1e-05 s⁻¹ |  | < 1e-05 s⁻¹ |  | 
14 | A6U G7U A15U U30G G40A | < 1e-05 s⁻¹ |  | < 1e-05 s⁻¹ |  | 
15 | A39C G63U | < 1e-05 s⁻¹ |  | < 1e-05 s⁻¹ | < 1e-05 s⁻¹ | 
16 | U30A A42U U55C | < 1e-05 s⁻¹ |  |  |  | 
17 | A15G U55A | 0.000962 ± 0.00014 s⁻¹ | 0.00144 ± 0.00025 s⁻¹ | 0.0387 ± 0.0094 s⁻¹ | 0.0107 ± 0.0017 s⁻¹ | 
18 | A15G G59C | < 1e-05 s⁻¹ | < 1e-05 s⁻¹ |  | < 1e-05 s⁻¹ | 
19 | C34A G41U G62A | < 1e-05 s⁻¹ |  | < 1e-05 s⁻¹ |  | 
20 | C11U G32C C58U C70G | 4.92e-05 ± 2.1e-05 s⁻¹ |  |  |  | 
21 | G7U G62A | < 1e-05 s⁻¹ | < 1e-05 s⁻¹ |  | < 1e-05 s⁻¹ | < 1e-05 s⁻¹
22 | U57G U65G | < 1e-05 s⁻¹ | < 1e-05 s⁻¹ |  |  | 
23 | A6C G66C C68G | < 1e-05 s⁻¹ |  |  |  | 
24 | A39C G51C C71G | < 1e-05 s⁻¹ |  | < 1e-05 s⁻¹ |  | 
25 | A36U G43U C50U | < 1e-05 s⁻¹ |  |  |  | 
